The values that follow come from the RNAGym collection of RNA variant scans (doi:10.7554/elife.80360).

First the molecules themselves.
B1: CPEB3 Ribozyme (parent)
chain: GGGGGCCACAGCAGAAGCGUUCACGUCGCGGCCCCUGUCAGAUUCUGGUGAAUCUGCGAAUUCUGCUGU

This data set covers variants of B1. Nature of the data set: self-cleavage, relative activity (ratio to wild type); higher = more cleavage; co-transcriptional.
In the case of GGGGGACACAGCAGAAGCGUUCACGUCGCGGCCCCUGUCAGAGUCUGGUGAAUCUGCGAAUUCUGCUGU [C6A U43G], the self-cleavage stood at 0.367.

As for GGGGGACACAGCAGAAGCGUUCACGUCGCGGCCCAUGUCAGAUUCUGGUGAAUCUGCGAAUUCUGCUGU [C6A C35A], the self-cleavage stood at 0.114.

As to GGGGGACACAGCAGAAGCGUUCACGUCGCGGCCCCUGUCAGAUUCUGGUGAAUCCGCGAAUUCUGCUGU [C6A U55C], the self-cleavage was 0.142. With GGGGGACACAGCAGAAGCGUUCACGUCGCAGCCCCUGUCAGAUUCUGGUGAAUCUGCGAAUUCUGCUGU [C6A G30A], the self-cleavage was found to be 0.338.

As to GGGGGACACAGCAGAAGCGUUCACGUCGCUGCCCCUGUCAGAUUCUGGUGAAUCUGCGAAUUCUGCUGU [C6A G30U], the self-cleavage is 0.157.

For GGGGGACACAGCAGAAGCGUUCACGUCGCGGCCCCUGUCAGAUUCUGGUGAAUCUGCAAAUUCUGCUGU [C6A G58A], the self-cleavage came out at 0.443. Turning to GGGGGACACAGCAGAAGCGUUCACGUCGCGGCCCCUGUCAGAUUCUGGUGAAUCUGCUAAUUCUGCUGU [C6A G58U], the self-cleavage amounted to 0.695.

Turning to GGGGGACACAGCAGAAGCGUUCACGUCUCGGCCCCUGUCAGAUUCUGGUGAAUCUGCGAAUUCUGCUGU [C6A G28U], the self-cleavage was 0.163. For GGGGGACACAGCAGAAGCGUUCACGUCACGGCCCCUGUCAGAUUCUGGUGAAUCUGCGAAUUCUGCUGU [C6A G28A], the self-cleavage was determined as 0.138. With GGGGGACACAGCAGAAGCGUUCACGUCCCGGCCCCUGUCAGAUUCUGGUGAAUCUGCGAAUUCUGCUGU [C6A G28C] the figure was 0.155. Consider GGGGGACACAGCAGAAGCGUUCACGUCGCGGCCCCUGUCAGAUUCUGGUGAAUCUGGGAAUUCUGCUGU [C6A C57G], for which the self-cleavage came out at 0.22. With GGGGGACACAGCAGAAGCGUUCACGUCGCGGCCCCUGUCAGAUUCUGGUGAAUCUGAGAAUUCUGCUGU [C6A C57A] the figure was 0.182; with GGGGGACACAGCAGAAGCGUUCACGUCGCGGCCCCUGUCAGAUUCUGGUGAAUCUGUGAAUUCUGCUGU [C6A C57U], 0.168. In the case of GGGGGACACAGCAGAAGCGUUCACGUCGCGGCCCCUGUCAGAUUCUGGUGAAUCUGCGAAUUCUGAUGU [C6A C66A] it was 0.386; in that of GGGGGACACAGCAGAAGCGUUCACGUCGCGGCCCCUGUCAGAUUCUGGUGAAUCUGCGAAUUCUGUUGU [C6A C66U], 0.641; in that of GGGGGACACAGCAGAAGCGUUCACGUCGCGGCCCCUGUCAGAUUCUGGUGAAUCUGCGAAUUCUGGUGU [C6A C66G], 0.44. Turning to GGGGGACACAGCAGAAGCGUACACGUCGCGGCCCCUGUCAGAUUCUGGUGAAUCUGCGAAUUCUGCUGU [C6A U21A], the self-cleavage was 0.554. Consider GGGGGACACAGCAGAAGCGUCCACGUCGCGGCCCCUGUCAGAUUCUGGUGAAUCUGCGAAUUCUGCUGU [C6A U21C], for which the self-cleavage worked out at 0.287.

As to GGGGGACACAGCAGAAGCGUGCACGUCGCGGCCCCUGUCAGAUUCUGGUGAAUCUGCGAAUUCUGCUGU [C6A U21G], the self-cleavage is 0.179. As to GGGGGACACAGCAGAAGCGUUCACGUCGCGGCCCCUGUCAGAUUCUGGUGAAUCUGCGAAGUCUGCUGU [C6A U61G], the self-cleavage was 0.242. Take GGGGGACACAGCAGAAGCGUUCACGUCGCGGCCCCUGUCAGAUUCUGGUGAAUCUGCGAACUCUGCUGU [C6A U61C]: the self-cleavage was 0.15. GGGGGACACAGCAGAAGCGUUCACGUCGCGGCCCCUGUAAGAUUCUGGUGAAUCUGCGAAUUCUGCUGU [C6A C39A]: the self-cleavage is 0.231. For the variant GGGGGACACAGCAGAAGCGUUCACGUCGCGGCCCCUGUUAGAUUCUGGUGAAUCUGCGAAUUCUGCUGU [C6A C39U], the self-cleavage was found to be 0.416.

As for GGGGGACACAGCAGAAGCGUUCACGUCGCGGCCCCUGUCAGAUUCUGGUUAAUCUGCGAAUUCUGCUGU [C6A G50U], the self-cleavage is 0.727. With GGGGGACACAGCAGAAGCGUUCACGUCGCGGCCCCUGUCAGAUUCUGGUCAAUCUGCGAAUUCUGCUGU [C6A G50C] the figure was 0.594. With GGGGGACACAGCAGAAGCGUUCACAUCGCGGCCCCUGUCAGAUUCUGGUGAAUCUGCGAAUUCUGCUGU [C6A G25A] the figure was 0.136. GGGGGACACAGCAGAAGCGUUCACCUCGCGGCCCCUGUCAGAUUCUGGUGAAUCUGCGAAUUCUGCUGU [C6A G25C]: the self-cleavage was found to be 0.133.

GGGGGACACAGCAGAAGCGUUCACUUCGCGGCCCCUGUCAGAUUCUGGUGAAUCUGCGAAUUCUGCUGU [C6A G25U]: the self-cleavage was 0.1. Take GGGGGACACAGCAGAAGCGUUCACGUCGCGGCCCCUGGCAGAUUCUGGUGAAUCUGCGAAUUCUGCUGU [C6A U38G]: the self-cleavage was determined as 0.117. On to GGGGGACACAGCAGAAGCGUUCACGUCGCGGCCCCUGCCAGAUUCUGGUGAAUCUGCGAAUUCUGCUGU [C6A U38C], for which the self-cleavage stood at 0.35. Take GGGGGACACAGCAGAAGCGUUCACGUCGCGGCCCCUGUCAGAUUCUGGUGAAACUGCGAAUUCUGCUGU [C6A U53A]: the self-cleavage was determined as 0.422. As for GGGGGACACAGCAGAAGCGUUCACGUCGCGGCCCCUGUCAGAUUCUGGUGAAGCUGCGAAUUCUGCUGU [C6A U53G], the self-cleavage came out at 0.195. In the case of GGGGGACACAGCAGAAGCGUUCACGUCGCGGCCCCUGUCAGAUUCUGGUGAACCUGCGAAUUCUGCUGU [C6A U53C] it was 0.335; in that of GGGGGACACAGCAGAAGCGUUCACGUCGCGGCCCCUGUCAGAUUGUGGUGAAUCUGCGAAUUCUGCUGU [C6A C45G], 0.595. On to GGGGGACACAGCAGAAGCGUUCACGUCGCGGCCCCUGUCAGAUUUUGGUGAAUCUGCGAAUUCUGCUGU [C6A C45U], for which the self-cleavage is 0.708.

In the case of GGGGGACACAGCAGAACCGUUCACGUCGCGGCCCCUGUCAGAUUCUGGUGAAUCUGCGAAUUCUGCUGU [C6A G17C], the self-cleavage turned out to be 0.115.

With GGGGGACACAGCAGAAUCGUUCACGUCGCGGCCCCUGUCAGAUUCUGGUGAAUCUGCGAAUUCUGCUGU [C6A G17U], the self-cleavage came out at 0.119.

Consider GGGGGACACAGCAGAAGCGUUCACGUCGCGGCCCCUGUCAGAUUCUGGUGAAUCUGCGAAUUCUGCUCU [C6A G68C], for which the self-cleavage was determined as 0.889.

With GGGGGACACAGCAGAAGCGUUCACGUCGCGGCCCCUGUCAGAUUCUGGUGAAUCUGCGAAUUCUGCUAU [C6A G68A], the self-cleavage is 0.881.
